Test results: IntAct's records for PubMed 18469807

Tests used:
unc5b_human UNC5B [1] = target: unc5b_human UNC5B (UniProt Q8IZJ1)
unc5b_human UNC5B [2] = target: unc5b_human UNC5B (UniProt Q8IZJ1); remark: listed apart in the source

Chain of unc5b_human UNC5B (Q8IZJ1 whole entry): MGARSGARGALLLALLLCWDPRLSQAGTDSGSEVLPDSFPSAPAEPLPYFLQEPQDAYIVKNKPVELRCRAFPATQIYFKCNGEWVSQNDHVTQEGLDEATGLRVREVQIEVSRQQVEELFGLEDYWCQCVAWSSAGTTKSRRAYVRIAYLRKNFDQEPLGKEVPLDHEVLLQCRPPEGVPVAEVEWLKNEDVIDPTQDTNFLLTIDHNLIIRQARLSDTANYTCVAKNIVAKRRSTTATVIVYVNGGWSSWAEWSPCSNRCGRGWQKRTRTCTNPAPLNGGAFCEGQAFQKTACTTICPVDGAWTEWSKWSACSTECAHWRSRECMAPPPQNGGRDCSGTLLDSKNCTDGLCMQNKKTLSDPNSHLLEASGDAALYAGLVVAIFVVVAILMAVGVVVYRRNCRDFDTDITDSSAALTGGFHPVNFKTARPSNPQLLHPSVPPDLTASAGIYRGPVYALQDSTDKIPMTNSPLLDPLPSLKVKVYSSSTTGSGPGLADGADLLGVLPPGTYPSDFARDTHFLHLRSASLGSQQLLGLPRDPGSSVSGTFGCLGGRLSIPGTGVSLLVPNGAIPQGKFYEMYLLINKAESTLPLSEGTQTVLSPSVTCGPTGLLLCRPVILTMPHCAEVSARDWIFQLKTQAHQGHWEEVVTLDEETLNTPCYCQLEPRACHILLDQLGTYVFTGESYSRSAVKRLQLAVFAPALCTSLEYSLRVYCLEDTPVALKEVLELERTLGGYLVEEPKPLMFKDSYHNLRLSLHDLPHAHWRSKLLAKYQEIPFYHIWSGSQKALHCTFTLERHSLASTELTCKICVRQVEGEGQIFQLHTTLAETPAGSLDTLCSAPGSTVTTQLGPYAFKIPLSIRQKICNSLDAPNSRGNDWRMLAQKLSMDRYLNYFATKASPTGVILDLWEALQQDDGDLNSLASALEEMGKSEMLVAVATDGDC

Row | effect of a mutation on the interaction (unc5b_human UNC5B [1]) | effect of a mutation on the interaction (unc5b_human UNC5B [2]) | Substance
1 | disrupting interaction | – | Arf-GAP with GTPase, ANK repeat and PH domain-containing protein 2 (Rattus norvegicus (Rat)), Q8CGU4 K413A;S414N
2 | – | disrupting interaction | Arf-GAP with GTPase, ANK repeat and PH domain-containing protein 2 (Rattus norvegicus (Rat)), Q8CGU4 Y1124F
3 | – | disrupting interaction | Arf-GAP with GTPase, ANK repeat and PH domain-containing protein 2 (Rattus norvegicus (Rat)), Q8CGU4 Y1032F
4 | – | disrupting interaction | Arf-GAP with GTPase, ANK repeat and PH domain-containing protein 2 (Rattus norvegicus (Rat)), Q8CGU4 Y1032F;Y1124F
